What was measured:
Experiment in all cases: SPOT array
Rvs167, P39743 = details: median of control spots 2707
Bbc1, P47068 = molecular target: T1, Bbc1, P47068; details: median of control spots 796
T1 sequence (P47068 1-78, looked up): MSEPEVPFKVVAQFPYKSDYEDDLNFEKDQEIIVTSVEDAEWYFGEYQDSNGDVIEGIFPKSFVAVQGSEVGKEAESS

Lsb1, P53281 = molecular target: T2, Lsb1, P53281; details: median of control spots 388
T2 sequence (P53281 45-122, looked up): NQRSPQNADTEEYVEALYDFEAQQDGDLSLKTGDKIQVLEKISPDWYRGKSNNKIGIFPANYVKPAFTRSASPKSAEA

Cyk3, Q07533 = molecular target: T3, Cyk3, Q07533; details: median of control spots 1451
T3 sequence (Q07533 1-83, looked up): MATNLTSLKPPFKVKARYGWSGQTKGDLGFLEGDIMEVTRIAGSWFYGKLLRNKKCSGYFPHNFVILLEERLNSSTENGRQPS

Pex13, P80667 = molecular target: T4, Pex13, P80667; details: median of control spots 1341
T4 sequence (P80667 295-386, looked up): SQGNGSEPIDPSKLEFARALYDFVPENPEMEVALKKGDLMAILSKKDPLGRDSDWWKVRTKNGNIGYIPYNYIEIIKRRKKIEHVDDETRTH

Boi1, P38041 = molecular target: T5, Boi1, P38041; details: median of control spots 1162
T5 sequence (P38041 1-86, looked up): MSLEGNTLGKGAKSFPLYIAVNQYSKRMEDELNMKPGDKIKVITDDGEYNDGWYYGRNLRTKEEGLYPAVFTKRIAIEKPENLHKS

Myo5, Q04439 = molecular target: T6, Myo5, Q04439; details: median of control spots 471
T6 sequence (Q04439 1072-1160, looked up): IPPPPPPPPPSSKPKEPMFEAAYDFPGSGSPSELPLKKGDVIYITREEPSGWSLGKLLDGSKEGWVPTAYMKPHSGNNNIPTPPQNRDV

Lsb4, P32793 = molecular target: T7, Lsb4, P32793; details: median of control spots 397
T7 sequence (P32793 402-468, looked up): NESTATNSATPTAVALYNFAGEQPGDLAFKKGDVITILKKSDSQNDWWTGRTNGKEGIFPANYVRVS

Sla1-3, P32790 = molecular target: T8, Sla1-3, P32790; details: median of control spots 5475
T8 sequence (P32790 344-424, looked up): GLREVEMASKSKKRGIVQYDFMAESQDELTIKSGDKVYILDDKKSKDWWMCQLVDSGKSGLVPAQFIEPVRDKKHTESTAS

Bem1-2, P29366 = details: median of control spots 4347
Sequence of Bem1-2, P29366 (P29366 139-227): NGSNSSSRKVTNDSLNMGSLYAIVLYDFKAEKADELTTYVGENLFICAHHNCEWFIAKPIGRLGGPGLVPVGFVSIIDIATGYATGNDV

Myo3, P36006 = details: median of control spots 468
Cdc25, P04821 = molecular target: T9, Cdc25, P04821; details: median of control spots 969
T9 sequence (P04821 50-136, looked up): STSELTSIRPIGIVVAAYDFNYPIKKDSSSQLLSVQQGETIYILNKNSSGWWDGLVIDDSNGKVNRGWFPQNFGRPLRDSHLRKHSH

Sho1, P40073 = details: median of control spots 1148
Sequence of Sho1, P40073 (P40073 287-367): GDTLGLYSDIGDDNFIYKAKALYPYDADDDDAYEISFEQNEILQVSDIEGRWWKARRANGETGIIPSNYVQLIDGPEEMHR

Abp1, P15891 = molecular target: T10, Abp1, P15891; details: median of control spots 935
T10 sequence (P15891 535-592, looked up): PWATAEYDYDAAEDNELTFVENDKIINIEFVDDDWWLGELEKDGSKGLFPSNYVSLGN

Pin3, Q06449 = molecular target: T11, Pin3, Q06449; details: median of control spots 2171
T11 sequence (Q06449 53-122, looked up): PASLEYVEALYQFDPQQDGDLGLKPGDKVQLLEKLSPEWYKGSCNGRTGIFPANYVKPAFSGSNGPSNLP

Nbp2, Q12163 = molecular target: T12, Nbp2, Q12163; details: median of control spots 357
T12 sequence (Q12163 103-180, looked up): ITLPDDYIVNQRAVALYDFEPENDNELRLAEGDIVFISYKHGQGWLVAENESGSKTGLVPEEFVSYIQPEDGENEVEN

GST = details: median of control spots 978
Bzz1-2, P38822 = molecular target: T13, Bzz1-2, P38822; details: median of control spots 4538
T13 sequence (P38822 568-633, looked up): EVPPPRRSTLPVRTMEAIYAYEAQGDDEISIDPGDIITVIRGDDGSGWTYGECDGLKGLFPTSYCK

Boi2, P39969 = molecular target: T14, Boi2, P39969; details: median of control spots 1161
T14 sequence (P39969 32-116, looked up): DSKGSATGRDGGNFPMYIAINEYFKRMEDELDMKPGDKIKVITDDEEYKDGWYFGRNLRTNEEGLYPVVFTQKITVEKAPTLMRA

Hof1, Q05080 = molecular target: T15, Hof1, Q05080; details: median of control spots 4086
T15 sequence (Q05080 590-669, looked up): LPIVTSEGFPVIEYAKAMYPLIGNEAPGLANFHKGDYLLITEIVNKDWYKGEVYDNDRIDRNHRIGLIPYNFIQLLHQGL

Bud14, P27637 = molecular target: T16, Bud14, P27637; details: median of control spots 956
T16 sequence (P27637 247-328, looked up): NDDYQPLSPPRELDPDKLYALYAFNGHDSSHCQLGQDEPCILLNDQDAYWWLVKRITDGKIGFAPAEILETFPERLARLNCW

Bzz1-1, P38822 = molecular target: T17, Bzz1-1, P38822; details: median of control spots 4446
T17 sequence (P38822 478-572, looked up): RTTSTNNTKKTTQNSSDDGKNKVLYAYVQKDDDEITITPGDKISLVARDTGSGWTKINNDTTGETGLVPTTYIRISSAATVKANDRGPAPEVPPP

Hse1, P38753 = molecular target: T18, Hse1, P38753; details: median of control spots 1727
T18 sequence (P38753 208-285, looked up): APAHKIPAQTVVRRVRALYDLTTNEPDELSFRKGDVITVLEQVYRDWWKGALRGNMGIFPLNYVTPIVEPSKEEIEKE

Bem1-1, P29366 = details: median of control spots 4282
Sequence of Bem1-1, P29366 (P29366 55-141): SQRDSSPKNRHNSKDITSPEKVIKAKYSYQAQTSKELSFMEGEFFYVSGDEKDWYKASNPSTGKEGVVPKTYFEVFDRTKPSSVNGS

Lsb3, P43603 = molecular target: T19, Lsb3, P43603; details: median of control spots 406
T19 sequence (P43603 385-451, looked up): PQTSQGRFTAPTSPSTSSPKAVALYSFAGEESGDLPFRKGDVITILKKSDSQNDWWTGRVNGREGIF

Fus1, P11710 = molecular target: T20, Fus1, P11710; details: median of control spots 1200
T20 sequence (P11710 432-512, looked up): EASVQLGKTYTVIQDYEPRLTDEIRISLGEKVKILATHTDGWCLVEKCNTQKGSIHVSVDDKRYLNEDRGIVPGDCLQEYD

Sla1-2, P32790 = molecular target: T21, Sla1-2, P32790; details: median of control spots 712
T21 sequence (P32790 60-140, looked up): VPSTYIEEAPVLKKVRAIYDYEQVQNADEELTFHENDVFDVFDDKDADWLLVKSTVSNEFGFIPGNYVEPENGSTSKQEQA

Sequence of Rvs167, P39743 (P39743 419-482): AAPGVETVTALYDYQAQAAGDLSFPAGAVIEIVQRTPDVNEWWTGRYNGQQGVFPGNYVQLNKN

Binder: RAPPPVPKKPSSRIA
- SPOT intensity (Rvs167, P39743): 45
- SPOT intensity (Bbc1, P47068): 116
- SPOT intensity (Lsb1, P53281): 1600
- SPOT intensity (Cyk3, Q07533): 0
- SPOT intensity (Pex13, P80667): 395
- SPOT intensity (Boi1, P38041): 0
- SPOT intensity (Myo5, Q04439): 15
- SPOT intensity (Lsb4, P32793): 180
- SPOT intensity (Sla1-3, P32790): 155
- SPOT intensity (Bem1-2, P29366): 592
- SPOT intensity (Myo3, P36006): 233
- SPOT intensity (Cdc25, P04821): 2
- SPOT intensity (Sho1, P40073): 509
- SPOT intensity (Abp1, P15891): 673
- SPOT intensity (Pin3, Q06449): 37
- SPOT intensity (Nbp2, Q12163): 1050
- SPOT intensity (GST): 1
- SPOT intensity (Bzz1-2, P38822): 590
- SPOT intensity (Boi2, P39969): 0
- SPOT intensity (Hof1, Q05080): 4
- SPOT intensity (Bud14, P27637): 3
- SPOT intensity (Bzz1-1, P38822): 435
- SPOT intensity (Hse1, P38753): 857
- SPOT intensity (Bem1-1, P29366): 0
- SPOT intensity (Lsb3, P43603): 415
- SPOT intensity (Fus1, P11710): 0
- SPOT intensity (Sla1-2, P32790): 0

Binder: RPKRRAPPPVPKKPS
- SPOT intensity (Rvs167, P39743): 99
- SPOT intensity (Bbc1, P47068): 487
- SPOT intensity (Lsb1, P53281): 1450
- SPOT intensity (Cyk3, Q07533): 2
- SPOT intensity (Pex13, P80667): 42
- SPOT intensity (Boi1, P38041): 3
- SPOT intensity (Myo5, Q04439): 232
- SPOT intensity (Lsb4, P32793): 129
- SPOT intensity (Sla1-3, P32790): 2980
- SPOT intensity (Bem1-2, P29366): 497
- SPOT intensity (Myo3, P36006): 491
- SPOT intensity (Cdc25, P04821): 12
- SPOT intensity (Sho1, P40073): 487
- SPOT intensity (Abp1, P15891): 555
- SPOT intensity (Pin3, Q06449): 9
- SPOT intensity (Nbp2, Q12163): 887
- SPOT intensity (GST): 6
- SPOT intensity (Bzz1-2, P38822): 2580
- SPOT intensity (Boi2, P39969): 1
- SPOT intensity (Hof1, Q05080): 2
- SPOT intensity (Bud14, P27637): 6
- SPOT intensity (Bzz1-1, P38822): 480
- SPOT intensity (Hse1, P38753): 310
- SPOT intensity (Bem1-1, P29366): 0
- SPOT intensity (Lsb3, P43603): 298
- SPOT intensity (Fus1, P11710): 6
- SPOT intensity (Sla1-2, P32790): 2

Binder: PKRRAPPPVPKKPSS
- SPOT intensity (Rvs167, P39743): 44
- SPOT intensity (Bbc1, P47068): 354
- SPOT intensity (Lsb1, P53281): 1740
- SPOT intensity (Cyk3, Q07533): 1
- SPOT intensity (Pex13, P80667): 41
- SPOT intensity (Boi1, P38041): 2
- SPOT intensity (Myo5, Q04439): 119
- SPOT intensity (Lsb4, P32793): 182
- SPOT intensity (Sla1-3, P32790): 3500
- SPOT intensity (Bem1-2, P29366): 389
- SPOT intensity (Myo3, P36006): 342
- SPOT intensity (Cdc25, P04821): 3
- SPOT intensity (Sho1, P40073): 399
- SPOT intensity (Abp1, P15891): 648
- SPOT intensity (Pin3, Q06449): 11
- SPOT intensity (Nbp2, Q12163): 650
- SPOT intensity (GST): 2
- SPOT intensity (Bzz1-2, P38822): 3420
- SPOT intensity (Boi2, P39969): 1
- SPOT intensity (Hof1, Q05080): 8
- SPOT intensity (Bud14, P27637): 1
- SPOT intensity (Bzz1-1, P38822): 650
- SPOT intensity (Hse1, P38753): 368
- SPOT intensity (Bem1-1, P29366): 0
- SPOT intensity (Lsb3, P43603): 346
- SPOT intensity (Fus1, P11710): 6
- SPOT intensity (Sla1-2, P32790): 0

Reference: PMC2756588
